For one molecule, EC50 results are on record in CN112724255A (CHENGDU JINKUN BIOTECHNOLOGY CO LTD, dated 2021).

Assay [1] addresses T1, 癌胚抗原 (CEA) 抗原 (UniProt P06731 35-685, limits assumed).
T1 construct: The CEA antigen used for coating is not described further
T1 sequence (looked up): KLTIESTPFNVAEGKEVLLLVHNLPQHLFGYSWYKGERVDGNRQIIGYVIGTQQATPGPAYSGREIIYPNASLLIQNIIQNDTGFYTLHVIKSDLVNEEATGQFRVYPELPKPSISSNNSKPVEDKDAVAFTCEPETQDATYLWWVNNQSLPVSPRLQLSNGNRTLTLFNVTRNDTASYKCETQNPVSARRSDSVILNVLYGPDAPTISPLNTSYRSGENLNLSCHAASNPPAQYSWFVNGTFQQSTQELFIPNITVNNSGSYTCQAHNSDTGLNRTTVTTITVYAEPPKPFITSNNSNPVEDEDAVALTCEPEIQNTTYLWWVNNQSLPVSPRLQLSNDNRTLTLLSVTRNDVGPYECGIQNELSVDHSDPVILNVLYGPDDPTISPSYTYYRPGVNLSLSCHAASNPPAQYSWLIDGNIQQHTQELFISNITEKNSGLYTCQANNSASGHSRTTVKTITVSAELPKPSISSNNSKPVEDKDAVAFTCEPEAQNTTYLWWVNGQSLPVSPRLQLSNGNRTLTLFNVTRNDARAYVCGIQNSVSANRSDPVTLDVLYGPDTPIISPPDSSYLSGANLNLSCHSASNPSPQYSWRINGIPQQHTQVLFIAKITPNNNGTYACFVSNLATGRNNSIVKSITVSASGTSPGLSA
Nature of the assay: ELISA, CEA antigen coated, detection with anti-His-HRP.

Assay [2] has as its target T1, 癌胚抗原 (CEA) 抗原. Nature of the assay: ELISA, CEA antigen coated; converted from 183.6 ng/ml with the relative molecular mass 27486 g/mol.

B1: 96ScFv 单链抗体 (靶向癌胚抗原的小分子抗体) (scFv)
scFv: MGQVRLRESGPSLVKPSQTLSLTCTVSGFSLTKYGVSWVRQAPGKALEWLGGVSSGALTAYNTALQSRLSVTRDTSKSQFSLSLSSVTTEDTAIYYCAKSVNGDSVPYGLDYWSPGLLITVSSGGGGSGGGGSGGGGSQAVLTQPSSVSGSLGQRVSITCSGSSSNIGGNAYVGWYQQVPGSAPRLLISATTDRASGIPDRFFGSRSGNTATLTISSLQAEDEADYYCASYQSTYSGVFGSGTMLAVLGTVAAPSVFHHHHHHHLGGC
notes: Expressed in E. coli from pET22-96ScFv and purified on Ni resin; The vector adds a C-terminal His tag and a cysteine; also called CEA小分子抗体; 本发明抗体片段
In the case of B1, the EC50 amounted to 0.184 µg/mL with 癌胚抗原 (CEA) 抗原 [1] and 6.7 nM in the assay with 癌胚抗原 (CEA) 抗原 [2].
